Test results from the supplement of paper PMC9112550, “Optimization of the antimicrobial peptide Bac7 by deep mutational scanning” (BMC Biology, 2022).

Tested on: Escherichia coli TOP10
Experiment: shrunken log2 fold change of peptide-encoding DNA abundance (4.5 h post-induction vs induction); higher = less antimicrobial activity (less host growth inhibition)
Conditions: time post-induction: 4.5 h; library: site-saturation at positions 5, 18, 19, 20
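Note: peptides expressed intracellularly from a pBAD plasmid library in pooled LB shake-flask culture, induced with 0.3% L-arabinose, DNA abundance read by NGS, three biological replicates, DESeq2 with apeglm shrinkage.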

Sequence | shrunken log2 fold change
RRIRLRPPRLPRPRPRPVDIPRP | -0.183
RRIRGRPPRLPRPRPRPHYPPRP | -0.222
RRIRIRPPRLPRPRPRPDSVPRP | 0.0234
RRIRLRPPRLPRPRPRPFYQPRP | -0.161
RRIRCRPPRLPRPRPRPPYMPRP | -0.288
RRIRDRPPRLPRPRPRPLCNPRP | -0.00406
RRIRFRPPRLPRPRPRPLNDPRP | -0.839
RRIRRRPPRLPRPRPRPIGVPRP | 0.273
RRIRWRPPRLPRPRPRPAVLPRP | 0.117
RRIRRRPPRLPRPRPRPQNWPRP | 0.199
RRIRQRPPRLPRPRPRPNKQPRP | 0.0262
RRIRERPPRLPRPRPRPRWWPRP | 0.0167
RRIRSRPPRLPRPRPRPCVYPRP | -0.0613
RRIRERPPRLPRPRPRPTDNPRP | -0.841
RRIRPRPPRLPRPRPRPHKMPRP | -0.403
RRIRRRPPRLPRPRPRPCSPPRP | -0.125
RRIRNRPPRLPRPRPRPHMPPRP | -0.0765
RRIRGRPPRLPRPRPRPQNLPRP | -0.34
RRIRVRPPRLPRPRPRPIDKPRP | -0.471
RRIRIRPPRLPRPRPRPWAQPRP | 0.0697
RRIRDRPPRLPRPRPRPDMQPRP | 1.13
RRIRWRPPRLPRPRPRPNTYPRP | 0.0764
RRIRMRPPRLPRPRPRPVNNPRP | -0.0848

Sequence | shrunken log2 fold change
RRIRWRPPRLPRPRPRPMHSPRP | -0.0572
RRIRKRPPRLPRPRPRPVGNPRP | 0.0255
RRIRGRPPRLPRPRPRPEHEPRP | 0.176
RRIRIRPPRLPRPRPRPFNIPRP | -0.93
RRIRCRPPRLPRPRPRPTPFPRP | 0.207
RRIRKRPPRLPRPRPRPRFQPRP | -0.00313
RRIRWRPPRLPRPRPRPAFFPRP | 0.111
RRIRLRPPRLPRPRPRPFRDPRP | 0.00463
RRIRKRPPRLPRPRPRPYLKPRP | -0.525
RRIRTRPPRLPRPRPRPDYEPRP | -0.023
RRIRCRPPRLPRPRPRPFPGPRP | -0.0106
RRIRCRPPRLPRPRPRPPPYPRP | 0.511
RRIRMRPPRLPRPRPRPCCTPRP | -0.229
RRIRLRPPRLPRPRPRPFHAPRP | -0.219
RRIRLRPPRLPRPRPRPFEKPRP | -0.0511
RRIRGRPPRLPRPRPRPYACPRP | -0.00589
RRIRTRPPRLPRPRPRPYWMPRP | -0.707
RRIRCRPPRLPRPRPRPKVHPRP | -0.0287
RRIRTRPPRLPRPRPRPSISPRP | -0.362
RRIRRRPPRLPRPRPRPLAEPRP | 0.654
RRIRQRPPRLPRPRPRPGWPPRP | 0.514
RRIRTRPPRLPRPRPRPHQHPRP | -0.415
RRIRIRPPRLPRPRPRPAPKPRP | 0.187

Sequence | shrunken log2 fold change
RRIRDRPPRLPRPRPRPLLTPRP | 0.35
RRIRVRPPRLPRPRPRPLTVPRP | 0.0473
RRIRHRPPRLPRPRPRPMHIPRP | -1.93
RRIRTRPPRLPRPRPRPCDAPRP | 0.0216
RRIRERPPRLPRPRPRPVVMPRP | 0.116
RRIRNRPPRLPRPRPRPFNCPRP | -0.112
RRIRYRPPRLPRPRPRPKSGPRP | 0.0623
RRIRDRPPRLPRPRPRPFIGPRP | -0.158
RRIRDRPPRLPRPRPRPFFNPRP | -0.156
RRIRQRPPRLPRPRPRPYNPPRP | -0.529
RRIRCRPPRLPRPRPRPKTYPRP | -0.48
RRIRARPPRLPRPRPRPMAIPRP | -0.0621
RRIRGRPPRLPRPRPRPTLTPRP | 1.1
RRIRYRPPRLPRPRPRPDFRPRP | 0.129
RRIRQRPPRLPRPRPRPTWAPRP | 0.586
RRIRARPPRLPRPRPRPNQDPRP | 0.116
RRIRSRPPRLPRPRPRPEYYPRP | 0.0495
RRIRERPPRLPRPRPRPNVCPRP | -0.382
RRIRARPPRLPRPRPRPVRKPRP | 0.763
RRIRCRPPRLPRPRPRPLNVPRP | -0.186
RRIRRRPPRLPRPRPRPGSMPRP | -0.387
RRIRMRPPRLPRPRPRPLFLPRP | -0.254
RRIRPRPPRLPRPRPRPDCHPRP | -0.204

Sequence | shrunken log2 fold change
RRIRIRPPRLPRPRPRPSFSPRP | -0.357
RRIRKRPPRLPRPRPRPVNVPRP | 0.0147
RRIRMRPPRLPRPRPRPMGQPRP | 0.579
RRIRVRPPRLPRPRPRPRVKPRP | -0.221
RRIRSRPPRLPRPRPRPLKLPRP | -0.15
RRIRQRPPRLPRPRPRPKLQPRP | 1.59
RRIRCRPPRLPRPRPRPDSKPRP | -0.657
RRIRWRPPRLPRPRPRPLIDPRP | 0.00313
RRIRPRPPRLPRPRPRPAEWPRP | 0.308
RRIRKRPPRLPRPRPRPVEAPRP | 0.657
RRIRIRPPRLPRPRPRPIFQPRP | -0.378
RRIRQRPPRLPRPRPRPSKDPRP | -0.462
RRIRQRPPRLPRPRPRPAFLPRP | -0.0387
RRIRFRPPRLPRPRPRPAFHPRP | -0.228
RRIRQRPPRLPRPRPRPWMWPRP | -0.457
RRIRPRPPRLPRPRPRPRGRPRP | 0.713
RRIRERPPRLPRPRPRPLKEPRP | -0.0885
RRIRHRPPRLPRPRPRPCWLPRP | -0.0661
RRIRWRPPRLPRPRPRPVTGPRP | 0.183
RRIRMRPPRLPRPRPRPPRYPRP | 1.71
RRIRIRPPRLPRPRPRPWVVPRP | -0.236
RRIRSRPPRLPRPRPRPDAHPRP | 0.0464
